Source: patent US20150276760A1 (INSERM INSTITUT NATIONAL DE LA SANTE ET DE LA RECHERCHE …, published 2015)

Experiments:
Experiment in all cases: Flag/HA immunopurification of MAML1-F/H from SupT1 nuclear extracts, DMSO or GSI (500 nM, 8 hours), western blot (FIG. 2D)
[1] = target: LSD1 (human, UniProt O60341 1-852)
[2] = target: T1, AF4p12 (human, UniProt O94915 2-3013)
T1 construct: also called FRYL

[3] = target: T2, PHF8 (human, UniProt Q9UPP1 1-1060, limits assumed)
T2 construct: also called endogenous PHF8; histone demethylase PHF8
T2 sequence (Q9UPP1 whole entry): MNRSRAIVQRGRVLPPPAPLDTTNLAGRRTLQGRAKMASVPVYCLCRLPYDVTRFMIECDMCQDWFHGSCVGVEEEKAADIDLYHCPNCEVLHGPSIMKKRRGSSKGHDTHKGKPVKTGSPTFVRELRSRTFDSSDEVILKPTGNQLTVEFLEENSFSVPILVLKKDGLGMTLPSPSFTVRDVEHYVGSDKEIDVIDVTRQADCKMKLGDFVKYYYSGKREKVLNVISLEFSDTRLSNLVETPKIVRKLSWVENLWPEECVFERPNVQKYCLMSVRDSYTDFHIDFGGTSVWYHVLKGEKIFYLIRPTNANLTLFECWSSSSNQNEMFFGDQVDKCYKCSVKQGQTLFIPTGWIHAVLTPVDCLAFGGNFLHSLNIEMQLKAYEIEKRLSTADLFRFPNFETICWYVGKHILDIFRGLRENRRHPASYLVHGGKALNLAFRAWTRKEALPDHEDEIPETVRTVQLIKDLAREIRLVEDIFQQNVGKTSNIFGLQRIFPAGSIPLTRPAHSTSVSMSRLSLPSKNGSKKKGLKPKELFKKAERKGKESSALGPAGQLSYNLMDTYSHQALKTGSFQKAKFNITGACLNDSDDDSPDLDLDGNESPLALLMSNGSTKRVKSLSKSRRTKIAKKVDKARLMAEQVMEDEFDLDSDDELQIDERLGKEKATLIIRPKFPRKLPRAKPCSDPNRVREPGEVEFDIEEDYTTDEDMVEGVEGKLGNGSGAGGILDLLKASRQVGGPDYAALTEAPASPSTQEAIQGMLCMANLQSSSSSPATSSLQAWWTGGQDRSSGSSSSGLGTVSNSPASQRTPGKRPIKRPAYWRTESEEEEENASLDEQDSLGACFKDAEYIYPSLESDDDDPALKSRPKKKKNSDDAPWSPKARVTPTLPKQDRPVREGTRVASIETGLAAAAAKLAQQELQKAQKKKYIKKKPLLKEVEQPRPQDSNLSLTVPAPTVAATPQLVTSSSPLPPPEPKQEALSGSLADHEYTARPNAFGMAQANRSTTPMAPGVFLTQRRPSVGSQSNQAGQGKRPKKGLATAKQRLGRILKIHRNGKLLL

[4] = target: T3, PB1 (human, UniProt Q86U86 1-1689, limits assumed)
T3 construct: also called PBAF subunit PB1

[5] = target: T4, BRG1 (human, UniProt P51532 1-1647)
T4 construct: also called endogenous BRG1; PBAF subunit BRG1

T1 sequence (O94915 2-3013 limits assumed): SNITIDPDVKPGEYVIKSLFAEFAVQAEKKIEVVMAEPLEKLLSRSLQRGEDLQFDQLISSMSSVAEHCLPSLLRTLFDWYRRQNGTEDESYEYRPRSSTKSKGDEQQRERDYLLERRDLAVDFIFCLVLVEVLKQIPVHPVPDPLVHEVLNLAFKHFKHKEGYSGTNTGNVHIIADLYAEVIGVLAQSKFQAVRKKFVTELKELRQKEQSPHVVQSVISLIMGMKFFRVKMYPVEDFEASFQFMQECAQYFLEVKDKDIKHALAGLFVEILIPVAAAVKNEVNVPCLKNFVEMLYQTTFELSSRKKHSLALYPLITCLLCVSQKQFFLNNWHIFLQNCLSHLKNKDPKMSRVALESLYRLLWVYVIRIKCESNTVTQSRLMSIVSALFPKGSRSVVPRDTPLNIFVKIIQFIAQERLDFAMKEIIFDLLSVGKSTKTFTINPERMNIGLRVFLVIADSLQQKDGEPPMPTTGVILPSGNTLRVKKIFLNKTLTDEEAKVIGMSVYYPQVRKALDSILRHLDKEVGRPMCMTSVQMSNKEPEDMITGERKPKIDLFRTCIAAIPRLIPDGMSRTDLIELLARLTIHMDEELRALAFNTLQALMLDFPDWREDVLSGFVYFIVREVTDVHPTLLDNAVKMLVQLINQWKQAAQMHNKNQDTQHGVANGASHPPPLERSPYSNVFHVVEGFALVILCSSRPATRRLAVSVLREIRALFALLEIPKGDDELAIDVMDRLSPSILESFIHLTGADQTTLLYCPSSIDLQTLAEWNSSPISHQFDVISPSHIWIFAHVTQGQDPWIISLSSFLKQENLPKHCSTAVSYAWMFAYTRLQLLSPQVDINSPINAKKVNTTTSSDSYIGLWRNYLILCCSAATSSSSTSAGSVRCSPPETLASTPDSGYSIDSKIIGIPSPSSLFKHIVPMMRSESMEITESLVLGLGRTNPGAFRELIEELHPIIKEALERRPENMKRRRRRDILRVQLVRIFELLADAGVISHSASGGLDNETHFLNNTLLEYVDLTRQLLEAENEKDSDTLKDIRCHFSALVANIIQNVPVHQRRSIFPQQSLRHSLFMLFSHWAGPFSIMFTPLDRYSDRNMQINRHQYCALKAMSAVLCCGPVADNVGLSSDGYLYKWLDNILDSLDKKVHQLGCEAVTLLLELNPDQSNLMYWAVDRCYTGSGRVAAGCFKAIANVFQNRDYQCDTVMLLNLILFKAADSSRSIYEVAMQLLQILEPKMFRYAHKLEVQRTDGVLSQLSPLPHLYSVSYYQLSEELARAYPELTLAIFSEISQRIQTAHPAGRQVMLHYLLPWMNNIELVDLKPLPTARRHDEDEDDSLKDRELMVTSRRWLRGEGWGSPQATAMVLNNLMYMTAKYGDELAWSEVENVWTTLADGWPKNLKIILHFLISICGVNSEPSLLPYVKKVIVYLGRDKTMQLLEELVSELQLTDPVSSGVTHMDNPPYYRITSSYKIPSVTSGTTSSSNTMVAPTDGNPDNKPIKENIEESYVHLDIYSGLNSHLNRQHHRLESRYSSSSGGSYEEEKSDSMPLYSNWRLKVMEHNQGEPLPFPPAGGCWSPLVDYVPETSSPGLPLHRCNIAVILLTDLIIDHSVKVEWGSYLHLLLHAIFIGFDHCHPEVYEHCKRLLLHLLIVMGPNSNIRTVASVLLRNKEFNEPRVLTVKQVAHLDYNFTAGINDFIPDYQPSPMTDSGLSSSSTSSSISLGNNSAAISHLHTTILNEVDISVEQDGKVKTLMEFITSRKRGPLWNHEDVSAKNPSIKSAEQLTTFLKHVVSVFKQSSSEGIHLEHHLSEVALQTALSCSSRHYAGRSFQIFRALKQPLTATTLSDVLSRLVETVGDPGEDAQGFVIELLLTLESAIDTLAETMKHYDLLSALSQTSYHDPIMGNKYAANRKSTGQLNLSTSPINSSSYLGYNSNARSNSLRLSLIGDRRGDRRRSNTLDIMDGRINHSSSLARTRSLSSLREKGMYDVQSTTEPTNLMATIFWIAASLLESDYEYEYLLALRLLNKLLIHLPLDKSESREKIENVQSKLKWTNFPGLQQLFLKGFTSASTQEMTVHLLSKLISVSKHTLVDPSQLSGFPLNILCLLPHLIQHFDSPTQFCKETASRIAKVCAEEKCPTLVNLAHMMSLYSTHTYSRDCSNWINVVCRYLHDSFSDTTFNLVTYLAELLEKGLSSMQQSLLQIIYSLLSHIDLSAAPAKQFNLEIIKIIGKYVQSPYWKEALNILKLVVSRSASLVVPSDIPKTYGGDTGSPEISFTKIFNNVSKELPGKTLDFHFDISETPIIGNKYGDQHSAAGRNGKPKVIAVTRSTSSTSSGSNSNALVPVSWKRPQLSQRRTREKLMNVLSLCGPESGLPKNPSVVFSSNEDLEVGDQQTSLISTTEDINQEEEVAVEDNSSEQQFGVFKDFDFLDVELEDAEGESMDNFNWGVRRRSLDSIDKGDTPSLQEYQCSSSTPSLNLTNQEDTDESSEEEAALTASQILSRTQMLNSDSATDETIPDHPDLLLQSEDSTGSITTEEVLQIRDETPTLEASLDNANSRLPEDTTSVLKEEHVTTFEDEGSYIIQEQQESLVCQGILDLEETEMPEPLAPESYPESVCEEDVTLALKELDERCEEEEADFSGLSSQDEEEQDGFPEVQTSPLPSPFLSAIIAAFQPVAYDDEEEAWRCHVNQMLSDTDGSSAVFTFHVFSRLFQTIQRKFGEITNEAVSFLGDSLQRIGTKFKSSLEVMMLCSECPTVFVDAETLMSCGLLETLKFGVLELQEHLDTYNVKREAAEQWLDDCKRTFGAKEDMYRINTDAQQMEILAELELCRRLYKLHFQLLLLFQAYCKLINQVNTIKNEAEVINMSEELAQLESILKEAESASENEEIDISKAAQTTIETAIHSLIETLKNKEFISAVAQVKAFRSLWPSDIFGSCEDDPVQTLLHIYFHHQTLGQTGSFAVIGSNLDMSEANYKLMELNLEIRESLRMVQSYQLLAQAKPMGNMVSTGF

binding result [1]: binds
binding result [2]: binds
binding result [3]: binds
binding result [4]: binds
binding result [5]: binds
B1: Flag and HA-tagged MAML1 (MAML1-F/H) (other, human, UniProt Q92585 1-1016, looked up)
chain: MVLPTCPMAEFALPRHSAVMERLRRRIELCRRHHSTCEARYEAVSPERLELERQHTFALHQRCIQAKAKRAGKHRQPPAATAPAPAAPAPRLDAADGPEHGRPATHLHDTVKRNLDSATSPQNGDQQNGYGDLFPGHKKTRREAPLGVAISSNGLPPASPLGQSDKPSGADALQSSGKHSLGLDSLNKKRLADSSLHLNGGSNPSESFPLSLNKELKQEPVEDLPCMITGTVGSISQSNLMPDLNLNEQEWKELIEELNRSVPDEDMKDLFNEDFEEKKDPESSGSATQTPLAQDINIKTEFSPAAFEQEQLGSPQVRAGSAGQTFLGPSSAPVSTDSPSLGGSQTLFHTSGQPRADNPSPNLMPASAQAQNAQRALAGVVLPSQGPGGASELSSAHQLQQIAAKQKREQMLQNPQQATPAPAPGQMSTWQQTGPSHSSLDVPYPMEKPASPSSYKQDFTNSKLLMMPSVNKSSPRPGGPYLQPSHVNLLSHQPPSNLNQNSANNQGSVLDYGNTKPLSHYKADCGQGSPGSGQSKPALMAYLPQQLSHISHEQNSLFLMKPKPGNMPFRSLVPPGQEQNPSSVPVQAQATSVGTQPPAVSVASSHNSSPYLSSQQQAAVMKQHQLLLDQQKQREQQQKHLQQQQFLQRQQHLLAEQEKQQFQRHLTRPPPQYQDPTQGSFPQQVGQFTGSSAAVPGMNTLGPSNSSCPRVFPQAGNLMPMGPGHASVSSLPTNSGQQDRGVAQFPGSQNMPQSSLYGMASGITQIVAQPPPQATNGHAHIPRQTNVGQNTSVSAAYGQNSLGSSGLSQQHNKGTLNPGLTKPPVPRVSPAMGGQNSSWQHQGMPNLSGQTPGNSNVSPFTAASSFHMQQQAHLKMSSPQFSQAVPNRPMAPMSSAAAVGSLLPPVSAQQRTSAPAPAPPPTAPQQGLPGLSPAGPELGAFSQSPASQMGGRAGLHCTQAYPVRTAGQELPFAYSGQPGGSGLSSVAGHTDLIDSLLKNRTSEEWMSDLDDLLGSQ
notes: Stably expressed in SupT1; also called FLAG-HA tagged MAML1; not shown: Flag and HA tags (pOZ vector)
